The target in series [1] is T1, AdpA_1075 (Actinosynnema pretiosum subsp. …, UniProt A0A290Z1C2 1-322).
T1 sequence: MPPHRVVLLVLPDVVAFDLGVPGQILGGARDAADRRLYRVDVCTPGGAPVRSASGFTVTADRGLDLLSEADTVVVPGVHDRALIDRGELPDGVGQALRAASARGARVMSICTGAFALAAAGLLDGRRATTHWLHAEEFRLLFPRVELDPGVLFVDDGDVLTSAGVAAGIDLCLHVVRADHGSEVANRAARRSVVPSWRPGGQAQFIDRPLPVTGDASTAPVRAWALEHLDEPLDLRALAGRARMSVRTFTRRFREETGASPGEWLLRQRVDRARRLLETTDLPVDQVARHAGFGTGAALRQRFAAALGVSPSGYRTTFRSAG
Briefly: EMSA; shifted with 1000 nM protein; excess unlabeled specific DNA competes; Beyotime Chemiluminescent EMSA Kit (buffer, salt and pH not stated); 20 ng biotin-labeled probe, 10 min at room temperature, 5% polyacrylamide gel. The conditions noted are these: protein: recombinant; tags: His6 (pET-28a NdeI/HindIII; the reverse primer keeps the stop codon, so N-terminal tag; named AdpA_1075-His6 in the text); chain copies: 2; label: 5' biotin on strand 1; blunt. In general terms: In EMSA bound probe runs differently from free probe, usually more slowly.

Series [2] addresses T1, AdpA_1075. Briefly: EMSA; protein concentration-dependent shift; excess unlabeled specific DNA competes; Beyotime Chemiluminescent EMSA Kit (buffer, salt and pH not stated); 20 ng biotin-labeled probe, 10 min at room temperature, 5% polyacrylamide gel. Particulars: protein: recombinant; tags: His6 (pET-28a NdeI/HindIII; the reverse primer keeps the stop codon, so N-terminal tag; named AdpA_1075-His6 in the text); chain copies: 2; label: 5' biotin on strand 1; blunt.

B1: Pasm28 (dsDNA)
DNA 1: CGCAGTGGCCCGAACGGGTCCGCAGTGGCCCGAACGGGTCCGCAGTGGCCCGAACGGGTC
DNA 2: GACCCGTTCGGGCCACTGCGGACCCGTTCGGGCCACTGCGGACCCGTTCGGGCCACTGCG
B1: the binding result with AdpA_1075 [1] is given as “binds”.

B2: PssgA (dsDNA)
DNA 1: GTGTTGGCCGGAACCACGGTGTTGGCCGGAACCACGGTGTTGGCCGGAACCACG
DNA 2: CGTGGTTCCGGCCAACACCGTGGTTCCGGCCAACACCGTGGTTCCGGCCAACAC
As for B2, in the series with AdpA_1075 [2], the binding result was “binds”.
